Test results published in patent US20190300590A1 (PROTAGONIST THERAPEUTICS, published 2019).
*1 amine or outer side, *2 acyl side, *3 side chain or, on linkers, in order; H or OH if unused. Bridges are numbered along the chain shown (N, C = ends). Primed or numbered codes have the meaning given here. [ ]: non-standard residue; d: D form. The star is where a group is joined. Phe(4-OMe)(3) = O-methyl-L-tyrosine (4-methoxy-L-phenylalanine), COc1ccc(C[C@H](N[*:1])C(=O)[*:2])cc1; Phe(4-OMe) = 4-methoxy-L-phenylalanine (O-methyl-L-tyrosine), COc1ccc(C[C@H](N[*:1])C(=O)[*:2])cc1; Tyr(3-tBu) = CC(C)(C)c1cc(C[C@H](N)C(=O)O)ccc1O; Abu(4-yl) = O=C([C@H](CC[*:3])N[*:1])[*:2]; 2Nal = N[C@@H](Cc1ccc2ccccc2c1)C(=O)O; Palmitoyl = CCCCCCCCCCCCCCCC(=O)*; β3hR = N=C(N)NCCC[C@H](N)CC(=O)O; αMeK = C[C@](N)(CCCCN)C(=O)O; Abu = CC[C@H](N)C(=O)O; AEA = NCCOCC(=O)O

Columns and labels:
Rat IL-23R_huFC [1] = molecular target: T1, Rat IL-23R_huFC (rat, UniProt F1LX96 39-369); assay: rat IL-23R competitive binding ELISA
T1 sequence: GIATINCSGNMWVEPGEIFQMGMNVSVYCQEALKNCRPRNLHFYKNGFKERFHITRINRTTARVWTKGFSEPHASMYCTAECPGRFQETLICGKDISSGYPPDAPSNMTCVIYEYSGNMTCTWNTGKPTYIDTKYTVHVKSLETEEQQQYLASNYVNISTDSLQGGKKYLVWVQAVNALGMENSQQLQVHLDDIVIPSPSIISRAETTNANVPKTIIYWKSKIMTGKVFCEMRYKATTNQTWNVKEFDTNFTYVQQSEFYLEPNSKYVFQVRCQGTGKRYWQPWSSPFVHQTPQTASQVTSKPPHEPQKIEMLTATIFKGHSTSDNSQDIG

IL-23R on DB cells = molecular target: T2, IL-23R on DB cells (human, UniProt Q5VWK5 24-629); assay: cell-based or functional assay
T2 sequence (looked up): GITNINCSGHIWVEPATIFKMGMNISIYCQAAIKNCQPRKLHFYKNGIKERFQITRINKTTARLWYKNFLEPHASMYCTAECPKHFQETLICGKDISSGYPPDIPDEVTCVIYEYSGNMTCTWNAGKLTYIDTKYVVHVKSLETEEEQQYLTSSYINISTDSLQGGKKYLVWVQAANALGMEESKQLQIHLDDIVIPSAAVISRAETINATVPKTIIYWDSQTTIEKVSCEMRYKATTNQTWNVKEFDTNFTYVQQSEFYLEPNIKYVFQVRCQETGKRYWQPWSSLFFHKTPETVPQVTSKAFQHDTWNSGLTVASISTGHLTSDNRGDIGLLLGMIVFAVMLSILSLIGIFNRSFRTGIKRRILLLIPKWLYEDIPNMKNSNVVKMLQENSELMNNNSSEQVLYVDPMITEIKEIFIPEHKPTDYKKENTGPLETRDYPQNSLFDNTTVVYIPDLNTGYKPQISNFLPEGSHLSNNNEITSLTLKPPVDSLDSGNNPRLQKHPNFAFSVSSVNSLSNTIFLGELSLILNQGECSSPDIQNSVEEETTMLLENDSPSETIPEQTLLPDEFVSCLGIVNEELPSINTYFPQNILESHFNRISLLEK

IL23R_huFC [2] = molecular target: T3, IL23R_huFC (human, UniProt Q5VWK5 24-353); assay: IL23-IL23R competitive binding ELISA
T3 sequence (looked up): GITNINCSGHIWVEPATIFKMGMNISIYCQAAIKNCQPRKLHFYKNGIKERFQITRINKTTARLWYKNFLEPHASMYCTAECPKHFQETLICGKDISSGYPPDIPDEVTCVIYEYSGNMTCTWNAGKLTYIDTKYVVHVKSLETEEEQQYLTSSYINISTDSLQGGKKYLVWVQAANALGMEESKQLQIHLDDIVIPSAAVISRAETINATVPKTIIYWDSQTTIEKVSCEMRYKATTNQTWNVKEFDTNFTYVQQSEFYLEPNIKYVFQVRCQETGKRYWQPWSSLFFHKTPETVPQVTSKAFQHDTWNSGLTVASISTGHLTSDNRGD

[3] = molecular target: T4, IL-23R on human cells (IL-23R-expressing DB cells; human NK cells) (human, UniProt Q5VWK5 24-629); assay: cell-based or functional assay
T4 sequence (looked up): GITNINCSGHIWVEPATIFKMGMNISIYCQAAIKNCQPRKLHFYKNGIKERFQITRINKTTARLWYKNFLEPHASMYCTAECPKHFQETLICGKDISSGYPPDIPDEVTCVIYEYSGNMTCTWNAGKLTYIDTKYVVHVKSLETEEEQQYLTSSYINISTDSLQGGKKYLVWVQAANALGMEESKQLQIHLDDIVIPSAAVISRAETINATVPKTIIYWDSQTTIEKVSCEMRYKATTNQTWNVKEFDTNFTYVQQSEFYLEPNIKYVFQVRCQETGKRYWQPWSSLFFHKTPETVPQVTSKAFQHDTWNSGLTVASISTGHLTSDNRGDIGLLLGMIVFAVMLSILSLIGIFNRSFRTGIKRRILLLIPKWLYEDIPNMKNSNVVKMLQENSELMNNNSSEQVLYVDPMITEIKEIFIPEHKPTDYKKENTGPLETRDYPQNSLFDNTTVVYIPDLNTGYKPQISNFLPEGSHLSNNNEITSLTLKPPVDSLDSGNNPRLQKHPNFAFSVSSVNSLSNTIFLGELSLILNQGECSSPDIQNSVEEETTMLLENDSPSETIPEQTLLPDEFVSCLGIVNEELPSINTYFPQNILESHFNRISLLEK

Rat IL-23R_huFC [4] = molecular target: Rat IL-23R_huFC (rat); assay: rat ELISA vs IL-23
IL23R_huFC [5] = molecular target: T5, IL23R_huFC (human, UniProt Q5VWK5 24-353); assay: human ELISA vs IL-23
T5 sequence (looked up): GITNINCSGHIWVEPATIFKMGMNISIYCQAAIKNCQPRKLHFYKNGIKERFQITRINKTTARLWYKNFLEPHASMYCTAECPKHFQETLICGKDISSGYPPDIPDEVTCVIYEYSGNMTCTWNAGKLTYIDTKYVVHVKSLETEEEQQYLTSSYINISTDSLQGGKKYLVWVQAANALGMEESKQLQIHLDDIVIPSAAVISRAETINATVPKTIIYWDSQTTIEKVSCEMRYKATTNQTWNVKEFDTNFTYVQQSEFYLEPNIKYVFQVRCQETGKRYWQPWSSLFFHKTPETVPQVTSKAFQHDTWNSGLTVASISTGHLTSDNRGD

[6] = molecular target: T4, IL-23R on human cells …; assay: cell-based or functional assay; remark: listed apart in the source
IL23R_huFC [7] = molecular target: T6, IL23R_huFC (human, UniProt Q5VWK5 24-353); assay: IL23-IL23R competitive ELISA
T6 sequence (looked up): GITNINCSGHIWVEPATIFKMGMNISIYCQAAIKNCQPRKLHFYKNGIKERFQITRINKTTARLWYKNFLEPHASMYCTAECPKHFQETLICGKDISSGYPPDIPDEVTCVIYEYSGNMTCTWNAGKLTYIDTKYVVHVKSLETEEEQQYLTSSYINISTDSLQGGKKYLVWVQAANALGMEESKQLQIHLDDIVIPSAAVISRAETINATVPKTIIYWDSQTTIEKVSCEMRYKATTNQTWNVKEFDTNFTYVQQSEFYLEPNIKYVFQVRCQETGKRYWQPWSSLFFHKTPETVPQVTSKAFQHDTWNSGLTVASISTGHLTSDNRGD

IL23R_huFC [8] = molecular target: T5, IL23R_huFC; assay: human ELISA vs IL-23; remark: listed apart in the source

With CQTWQCYWLENG (not fully specified; Ac; α-MeLeu at 9; NH2) [Ac-CQTWQCYW-[α-MeLeu]-ENG-NH2] the IC50 (Rat IL-23R_huFC [1]) was 27 nM and the “pStat3 HTRF IC50” value (IL-23R on DB cells) was 5 nM.

Ac-CQTWQCYWK(Palmitoyl)ENG-NH2 (cysteine pairing not given here) [Ac-CQTWQCYW-[K(Palm)]-ENG-NH2] showed an IC50 (IL23R_huFC [2]) of 4880 nM.

With XQTWQXFXLKNN (as bracketed in name; Pen-Pen disulfide) [Ac-[Pen]-QTWQ-[Pen]-[Phe[4-(2-aminoethoxy)]-[2-Nal]-[α-MeLeu]-[Lys(Ac)]-NN-NH2] the “NK cell assay IC50 (IFNγ)” value [3] was < 10 nM.

B1: Ac-CSTWQCYWLKHGGE-NH2 (peptide)
peptide: Ac-CSTWQCYWLKHGGE-NH2
modifications: disulfide 1-6
SMILES: CC(=O)N[C@H]1CSSC[C@@H](C(=O)N[C@@H](Cc2ccc(O)cc2)C(=O)N[C@@H](Cc2c[nH]c3ccccc23)C(=O)N[C@@H](CC(C)C)C(=O)N[C@@H](CCCCN)C(=O)N[C@@H](Cc2c[nH]cn2)C(=O)NCC(=O)NCC(=O)N[C@@H](CCC(=O)O)C(N)=O)NC(=O)[C@H](CCC(N)=O)NC(=O)[C@H](Cc2c[nH]c3ccccc23)NC(=O)[C@H]([C@@H](C)O)NC(=O)[C@H](CO)NC1=O
B1 was tested, and the IC50 (Rat IL-23R_huFC [1]) was 24 nM and the “pStat3 HTRF IC50” value (IL-23R on DB cells) was 2 nM.

XNTWQXFXXKNN (as bracketed in name; Pen-Pen disulfide) [Ac-[Pen]-NTWQ[Pen]-[Phe(CONH2)]-[2-Nal]-[Aib]-[Lys(Ac)]-NN-NH2] was tested, and the “NK cell assay IC50 (IFNγ)” value [3] was < 10 nM.

Work on Ac-CQTWQCYW[dL]ENG-NH2 (cysteine pairing not given here) [Ac-CQTWQCYW-[(D)Leu]-ENG-NH2] yielded an IC50 (IL23R_huFC [2]) of 319 nM.

With XNTWQXFXXKNA (as bracketed in name; Pen-Pen disulfide) [Ac-[Pen]-NTWQ-[Pen]-[Phe]4-(2-aminoethoxy)]-[2-Nal]-[Aib]-[Lys(Ac)]-N-[βAlal-NH2] the “NK cell assay IC50 (IFNγ)” value [3] was < 10 nM.

XQTWQCXXXKNG (as bracketed in name; thioether cyclo) [Ac-Cyclo-[[Abu]-QTWQC]-[2-Nal]-[2-Nal]-[α-MeOrn]-[Lys(Ac)]-NG-NH2] showed an IC50 (Rat IL-23R_huFC [4]) of 100 to 1000 nM.

Binder Ac-[Abu]QTWQC[Phe(4-OMe)][2Nal][dN]K(Ac)NG-NH2 (thioether 1-6) [Ac-Cyclo-[[Abu]-QTWQC]-[Phe(4-OMe)]-[2-Nal]-[(D)Asn]-[Lys(Ac)]-NG-NH2] has an IC50 (Rat IL-23R_huFC [4]) of 100 to 1000 nM and an IC50 (IL23R_huFC [5]) of 25 to 100 nM.

In the case of Ac-[Abu]QTWQC[Phe(4-OMe)][2Nal][αMeK]ENG-NH2 (thioether 1-6) [Ac-Cyclo-[[Abu]-QTWQC]-[Phe(4-OMe)]-[2-Nal]-[α-MeLys]-ENG-NH2], the IC50 (Rat IL-23R_huFC [4]) is reported as 100 to 1000 nM, the “pStat3 HTRF IC50” value [6] is reported as < 10 nM and the IC50 (IL23R_huFC [5]) is reported as 25 to 100 nM.

B2: Ac-CQTWQCYW-[βhArg]-VNG-[AEA]-[(D)Lys]-NH2 (peptide)
peptide: Ac-CQTWQCYW[β3hR]VNG[AEA][dK]-NH2
modifications: disulfide 1-6
SMILES: CC(=O)N[C@H]1CSSC[C@@H](C(=O)N[C@@H](Cc2ccc(O)cc2)C(=O)N[C@@H](Cc2c[nH]c3ccccc23)C(=O)N[C@@H](CCCNC(=N)N)CC(=O)N[C@H](C(=O)N[C@@H](CC(N)=O)C(=O)NCC(=O)NCCOCC(=O)N[C@H](CCCCN)C(N)=O)C(C)C)NC(=O)[C@H](CCC(N)=O)NC(=O)[C@H](Cc2c[nH]c3ccccc23)NC(=O)[C@H]([C@@H](C)O)NC(=O)[C@H](CCC(N)=O)NC1=O
With B2 the IC50 (IL23R_huFC [7]) was 922 nM.

B3: Ac-Cyclo-[[Abu]RTWQC]-YWRKFG-[AEA]-[(D)Lys]-NH2 (peptide)
peptide: Ac-[Abu(4-yl)]RTWQCYWRKFG[AEA][dK]-NH2
modifications: thioether 1-6
SMILES: CC(=O)N[C@H]1CCSC[C@@H](C(=O)N[C@@H](Cc2ccc(O)cc2)C(=O)N[C@@H](Cc2c[nH]c3ccccc23)C(=O)N[C@@H](CCCNC(=N)N)C(=O)N[C@@H](CCCCN)C(=O)N[C@@H](Cc2ccccc2)C(=O)NCC(=O)NCCOCC(=O)N[C@H](CCCCN)C(N)=O)NC(=O)[C@H](CCC(N)=O)NC(=O)[C@H](Cc2c[nH]c3ccccc23)NC(=O)[C@H]([C@@H](C)O)NC(=O)[C@H](CCCNC(=N)N)NC1=O
B3 was tested, and the IC50 (Rat IL-23R_huFC [4]) was 100 to 1000 nM and the IC50 (IL23R_huFC [5]) was 25 to 100 nM.

Work on Ac-[Abu]QTWQC[Phe(4-OMe)(3)][Tyr(3-tBu)][αMeK]ENG-NH2 (thioether 1-6) [Ac-Cyclo-[[Abu]-QTWQC]-[Phe(4-OMe)]-[Tyr(3-tBu)]-[α-MeLys]-ENG-NH2] yielded an IC50 (Rat IL-23R_huFC [4]) of 100 to 1000 nM and an IC50 (IL23R_huFC [5]) of 25 to 100 nM.

With XQTWQXFXKENG (as bracketed in name; thioether cyclo) [Ac-Cyclo-[[Abu]-QTWQ-[Pen]]-[Phe(4-OMe)]-[2-Nal]-[α-MeLys]-ENG-NH2] the IC50 (IL23R_huFC [8]) was 100 to 1000 nM and the IC50 (Rat IL-23R_huFC [4]) was 100 to 1000 nM.

For XQTWQXFXKKNG (as bracketed in name; thioether cyclo) [Ac-Cyclo-[[Abu]-QTWQ-[Pen]]-[Phe(4-OMe)]-[2-Nal][α-MeLys]-[Lys(Ac)]NG-NH2], the IC50 (Rat IL-23R_huFC [4]) was 100 to 1000 nM.
